Here are results for four molecules from article PMC6978714 (2019).

For orientation: Kd means the concentration at which binding is half-saturated.

The chains are these.
B1: thioredoxin-fused MBP 81-104 (MBP epitope library), biotinylated (peptide)
chain: TQDENPVVHFFKNIVTPRTPPPSQ
modifications: not fully specified; also: thioredoxin-fused, end not given here, biotinylated chemically (EZ-Link Sulfo-NHS-LC-biotin, 1:20), position not given here
B2: thioredoxin-fused MBP 146-170 (MBP epitope library), biotinylated (peptide)
chain: DAQGTLSKIFKLGGRDSRSGSPMAR
modifications: not fully specified; also: thioredoxin-fused, end not given here, biotinylated chemically (EZ-Link Sulfo-NHS-LC-biotin, 1:20), position not given here

No end group written: not given here.

The target in this test is recombinant HLA-DRB1*01:01 protein (HLA-DR α chain with DRB1*01:01 β chain) (human).
Consider TQDENPVVHFFKNIVTPRTPPPSQ (also: biotinylated, position not given here) [chemically synthesized biotinylated peptide MBP 81-104], for which the Kd stood at 22 nM.

In the case of B1, the Kd is 103 nM.

As for DAQGTLSKIFKLGGRDSRSGSPMAR (also: biotinylated, position not given here) [chemically synthesized biotinylated peptide MBP 146-170], the Kd stood at 52 nM.

On to B2, for which the Kd is 101 nM.
